From PMC5153404, “Analysis of the Interaction between Globular Head Modules of Human C1q and Its Candidate Receptor gC1qR” (Frontiers in Immunology, 2016) come the findings set out here.

The test concerns the target T1, Human C1q (human, UniProt P02745 23-245; P02746 28-253; P02747 29-245).
T1 construct: C1q A chain, human, from plasma; C1q B chain, human, from plasma; C1q C chain, human, from plasma; 18 polypeptides (6A, 6B, 6C), 460 kDa, as the introduction says; also called full-length C1q; source: purified from human plasma (IgG-Sepharose, HiTrap Protein G); copies: 6 + 6 + 6
Put plainly: ELISA; human C1q coated on wells (5, 2.5, 1.25, 0.625 μg/well); 2.5 μg gC1qR in 50 mM Tris-HCl pH 8.0, 100 mM NaCl, 5 mM CaCl2; 1 h at 37°C, then 1 h at 4°C; detected with anti-gC1qR polyclonal antibody and Protein A-HRP. The settings on record: both partners purified.

T1 sequence (P02745 23-245, chain 1 of 3): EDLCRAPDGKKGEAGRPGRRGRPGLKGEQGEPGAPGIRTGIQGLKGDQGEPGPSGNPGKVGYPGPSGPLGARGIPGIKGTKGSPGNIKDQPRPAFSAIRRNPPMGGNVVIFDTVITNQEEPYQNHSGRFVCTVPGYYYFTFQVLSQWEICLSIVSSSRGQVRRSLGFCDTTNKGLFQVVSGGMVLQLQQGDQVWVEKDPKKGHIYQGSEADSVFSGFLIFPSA
T1 sequence (P02746 28-253, chain 2 of 3): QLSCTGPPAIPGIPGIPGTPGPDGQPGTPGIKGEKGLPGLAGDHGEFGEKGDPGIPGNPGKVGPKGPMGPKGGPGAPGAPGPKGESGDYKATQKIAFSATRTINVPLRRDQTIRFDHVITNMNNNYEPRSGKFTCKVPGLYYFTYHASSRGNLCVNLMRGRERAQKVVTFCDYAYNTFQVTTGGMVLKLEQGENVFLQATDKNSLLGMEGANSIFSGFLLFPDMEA
T1 sequence (P02747 29-245, chain 3 of 3): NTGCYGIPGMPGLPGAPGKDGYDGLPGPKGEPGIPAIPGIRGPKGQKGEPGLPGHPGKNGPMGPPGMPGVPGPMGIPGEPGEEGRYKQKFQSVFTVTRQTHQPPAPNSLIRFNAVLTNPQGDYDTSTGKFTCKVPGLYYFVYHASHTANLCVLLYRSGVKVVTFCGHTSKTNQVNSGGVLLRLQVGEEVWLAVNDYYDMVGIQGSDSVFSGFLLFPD

B1: Recombinant mature human gC1qR (residues 74-282) (receptor, UniProt Q07021 74-282, looked up)
chain: LHTDGDKAFVDFLSDEIKEERKIQKHKTLPKMSGGWELELNGTEAKLVRKVAGEKITVTFNINNSIPPTFDGEEEPSQGQKVEEQEPELTSTPNFVVEVIKNDDGKKALVLDCHYPEDEVGQEDEAESDIFSIREVSFQSTGESEWKDTNYTLNTDSLDWALYDHLMDFLADRGVDNTFADELVELSTALEHQEYITFLEDLKSFVKSQ
B1: the binding result is reported as “binds”.
